Experiments:
SurA-core = SurA-core (E. coli, UniProt P0ABZ6 21-428, deleting codons for residues 172–389); test: MST; apparent Kd, Hill fit, 0.8 M urea
SurA-WT [1] = biological target: T1, SurA-WT (E. coli, UniProt P0ABZ6 21-428); test: MST; apparent Kd, Hill fit, 0.8 M urea
T1 chain: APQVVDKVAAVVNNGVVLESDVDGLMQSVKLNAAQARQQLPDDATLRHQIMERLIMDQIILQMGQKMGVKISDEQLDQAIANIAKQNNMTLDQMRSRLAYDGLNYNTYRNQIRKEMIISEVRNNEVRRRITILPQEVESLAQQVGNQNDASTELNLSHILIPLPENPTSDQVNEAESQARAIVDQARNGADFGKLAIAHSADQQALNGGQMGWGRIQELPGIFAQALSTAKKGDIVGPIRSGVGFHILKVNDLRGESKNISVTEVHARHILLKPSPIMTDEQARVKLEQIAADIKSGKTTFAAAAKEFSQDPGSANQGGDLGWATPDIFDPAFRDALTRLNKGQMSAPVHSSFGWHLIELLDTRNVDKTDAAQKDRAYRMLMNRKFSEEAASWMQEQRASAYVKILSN

OmpF = biological target: T2, OmpF (Escherichia coli, UniProt P02931)
T2 chain: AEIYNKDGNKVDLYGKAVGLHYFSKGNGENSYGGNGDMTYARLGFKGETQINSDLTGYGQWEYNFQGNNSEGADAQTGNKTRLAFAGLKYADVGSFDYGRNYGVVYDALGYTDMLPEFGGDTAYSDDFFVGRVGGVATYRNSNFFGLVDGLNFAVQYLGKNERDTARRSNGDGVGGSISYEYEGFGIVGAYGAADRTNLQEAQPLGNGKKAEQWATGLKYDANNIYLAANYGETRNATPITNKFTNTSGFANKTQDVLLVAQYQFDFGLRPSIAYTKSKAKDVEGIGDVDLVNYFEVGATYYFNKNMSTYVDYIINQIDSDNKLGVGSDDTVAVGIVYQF

[2] = biological target: T3, tOmpA transmembrane domain (Escherichia coli, UniProt P0A910)
T3 chain: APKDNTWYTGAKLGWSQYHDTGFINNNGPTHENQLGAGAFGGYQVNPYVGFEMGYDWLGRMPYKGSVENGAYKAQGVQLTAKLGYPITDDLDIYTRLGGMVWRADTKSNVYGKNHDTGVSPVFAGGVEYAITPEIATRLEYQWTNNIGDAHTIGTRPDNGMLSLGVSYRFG

SurA-WT [3] = biological target: T1, SurA-WT; test: ITC

B1: Cys-OmpX labelled with Alexa Fluor 488 (natural protein)
chain: MGSCATSTVTGGYAQSDAQGQMNKMGGFNLKYRYEEDNSPLGVIGSFTYTEKSRTASSGDYNKNQYYGITAGPAYRINDWASIYGVVGVGYGKFQTTEYPTYKHDTSDYGFSYGAGLQFNPMENVALDFSYEQSRIRSVDVGTWIAGVGYRF
modifications: Alexa Fluor 488 on the N-terminal Cys
In the case of B1, the Kd (SurA-core) is reported as 5.1 µM and the Kd (SurA-WT [1]) is reported as 1.3 µM.

B2: SurA (protein)
chain: T1 chain
B2 was tested, and the Ki (OmpF) was 5.2 µM and the Kd [2] was 3.7 µM.

B3: WEYIPNV peptide (peptide)
peptide: WEYIPNV
B3 gave a Kd (SurA-WT [3]) of 5.4 µM.
